Data reported in US20220057411A1 (PERSEUS SCIENCE GROUP, published 2022).

How the values were obtained:
[1] = molecular target: T1, PKCg 33-36 kDa proteolytic fragment (human); assay: chemiluminescent capillary Western/ELISA on human plasma (stroke vs normal); signal at the ROC point
T1 construct: also called 32-36 kDa fragment
Protocol: (§1) The Sensitivity was calculated using (=SUM individual disease samples)/total of all disease samples). False Positives were calculated using the (=SUM each individual healthy sample/total of all healthy samples). Specificity is defined as (1-False Positives). This statistical method maximizes sensitivity and identifies the probability of false positives. The cut-off point for each ROC curve between healthy and disease samples was calculated and then related to the total chemiluminescence signal that is represented by those probabilities. The cut-off for each sample cohort stained with PKC11, PKC13, and PKC14 antibodies are represented by a line in each graph below.
(§2) Briefly, to conduct the chemiluminescent capillary ELISA in this example, reagents and individual plasma from Normal vs. TBI clinical samples were loaded into an automated Western blot machine (using the Auto-Western service from RayBiotech Life, Inc). In the first step, sample is loaded into the capillary automatically. Proteins are then separated by size as they electophoretically migrate through a stacking and separation matrix. The separated proteins are then immobilized on the capillary wall via a proprietary photoactivated capture chemistry. Target proteins, i.e., PKCg and/or PKCg proteolytic fragments were identified using a primary antibody, e.g., the rabbit monoclonal antibodies described herein, and immunoprobed with an HRP-conjugated secondary goat anti-rabbit IgG antibody and chemiluminescent substrate. An electropherogram is produced which plots the baseline, molecular weight and quantitative chemiluminescence signal of each peak. The quantitative signal was derived for each molecular weight band in every electropherogram. Each quantitative chemiluminescence signal was generated using the following formula; (C2-C1/C1), where C2 equals Area Under the Curve and C1 equals the baseline for that sample. This specific chemiluminescence measure was used in comparisons of all normal human plasma compared to TBI or stroke plasma samples after staining with antibodies, i.e., PKC11, PKC13, or PKC14. Statistical comparisons were made using GraphPad Prism 8 software. The resulting specific chemiluminescence signal was detected and quantitated, with sensitivity down in the picograms/ml range, providing a direct measure of TBI biomarkers, i.e., PKCg, and/or PKCg proteolytic fragments.

[2] = molecular target: PKCg 53-60 kDa proteolytic fragment (human); assay: as above
Protocol: as §1, §2

[3] = molecular target: PKCg 42-48 kDa proteolytic fragment (human); assay: as above
Protocol: as §1, §2

[4] = molecular target: PKCg 49-52 kDa proteolytic fragment (human); assay: chemiluminescent capillary Western/ELISA on human plasma; 49-52 kDa band; sample signal at ROC cut-off
Protocol: as §1
as §2, with “Target proteins, i.e., PKCg and/or PKCg proteolytic fragments were identified using a primary antibody, e.g., the rabbit monoclonal antibodies described herein, and immunoprobed with an HRP-conjugated secondary goat anti-rabbit IgG antibody and chemiluminescent substrate.” left out, “This specific chemiluminescence measure was used in comparisons of all normal human plasma compared to TBI or stroke plasma samples after staining with antibodies, i.e., PKC11, PKC13, or PKC14. Statistical comparisons were made using GraphPad Prism 8 software.” left out

[5] = molecular target: PKCg 49-52 kDa proteolytic fragment (human); assay: chemiluminescent capillary Western/ELISA on human plasma; 49-52 kDa band; signal at ROC cut-off
Protocol: as §1
as §2, with “Target proteins, i.e., PKCg and/or PKCg proteolytic fragments were identified using a primary antibody, e.g., the rabbit monoclonal antibodies described herein, and immunoprobed with an HRP-conjugated secondary goat anti-rabbit IgG antibody and chemiluminescent substrate.” left out, “This specific chemiluminescence measure was used in comparisons of all normal human plasma compared to TBI or stroke plasma samples after staining with antibodies, i.e., PKC11, PKC13, or PKC14. Statistical comparisons were made using GraphPad Prism 8 software.” left out

[6] = molecular target: T2, full-length human Protein Kinase C, gamma isoform (PKCg), 63-73 kDa (human, UniProt P05129 1-697); assay: conclusion; clones came from ELISA/MAPIA screening against PKCg
T2 construct: also called PKCγ; full-length PKCg (63-73 kDa)

[7] = molecular target: T2, full-length human Protein Kinase C, …; assay: chemiluminescent capillary Western/ELISA on human plasma (stroke vs normal); signal at the ROC point
Protocol: as §1, §2

[8] = molecular target: PKCg 49-52 kDa proteolytic fragment (human); assay: chemiluminescent capillary Western/ELISA on human plasma; 49-52 kDa band; normal plasma sample
Protocol: as §1
Briefly, to conduct the chemiluminescent capillary ELISA in this example, reagents and individual plasma from Normal vs. TBI clinical samples were loaded into an automated Western blot machine (using the Auto-Western service from RayBiotech Life, Inc). In the first step, sample is loaded into the capillary automatically. […] An electropherogram is produced which plots the baseline, molecular weight and quantitative chemiluminescence signal of each peak. The quantitative signal was derived for each molecular weight band in every electropherogram. Each quantitative chemiluminescence signal was generated using the following formula; (C2-C1/C1), where C2 equals Area Under the Curve and C1 equals the baseline for that sample. […]

[9] = molecular target: higher molecular weight band at 95-105 kDa (human); assay: chemiluminescent capillary Western/ELISA on human plasma (stroke vs normal); signal at the ROC point
Protocol: as §1, §2

| Binder | Signal Chemiluminescence [1] [chemiluminescence units] | Signal Chemiluminescence [2] [chemiluminescence units] | Signal Chemiluminescence [3] [chemiluminescence units] | chemiluminescence signal (ROC cut-off, TBI) [4] [chemiluminescence units] | chemiluminescence signal (ROC cut-off, stroke) [5] [chemiluminescence units] | binding result [6] | Signal Chemiluminescence [7] [chemiluminescence units] | chemiluminescence signal (normal plasma sample, false positive) [8] [chemiluminescence units] | Signal Chemiluminescence [9] [chemiluminescence units] |
| --- | --- | --- | --- | --- | --- | --- | --- | --- | --- |
| PKC13 (5H1/5K1) rabbit anti-PKCg monoclonal antibody (antibody, V domains shown, Rabbit IgG heavy chain and rabbit kappa light chain; Entries as printed seem to include a leader; no cleavage site is stated; also called mAb PKC13; PCK13) VH: QEQLKESGGGLVTPGGTLTLTCTVSGFSLSSYAMSWVRQAPGKGLEWIGIIISGGSAYYATWAKGRFTISKTSTTVDLSITSPTTEDTATYFCARAKSGTYTGDYFTLWGQGTLVTVSS VL: AFELTQTPASVEAAVGGTVTIKCQASESIGNALAWYQQKPGQPPKLLIYRASTLESGVPSRFKGSGSGTEFTLTISDLECADAATYYCQSYVGSRSTGYNVFGGGTEVVVK | 319 | 3350 | 2210 | 658 | 999 |  |  |  |  |
| 20H1/20K3 rabbit anti-PKCg monoclonal antibody clone (antibody, V domains shown, Rabbit IgG heavy chain and kappa light chain; Entries as printed seem to include a leader; no cleavage site is stated) VH: QSVEESGGRLVTPGTPLTLTCTVSGIDLSSNAMNWVRQAPGKGLEWIGIIGFSGSTNYASWAKGRFTISKTSTTVDLKITSPTTEDTATYFCARGGLNIGMNLWGQGTLVTVSS VL: AQVLTQTPSPVSAAVGGTVPISCQSSQSVYDNNWLAWYQQKPGQPPKLLVYYASTLASGVPSRFKGSGSGTQFTLTINDLECDDAATYYCAGGYGDTNGGASSFGGGTEVVVK |  |  |  |  |  | binds |  |  |  |
| PKC14 (7H1/7K3) rabbit anti-PKCg monoclonal antibody (antibody, V domains shown, Rabbit IgG heavy chain and rabbit kappa light chain; Entries as printed seem to include a leader; no cleavage site is stated; also called mAb PKC14) VH: QSLEESGGDLVQPGASLTLTCTASGFTLTTYWICWVRQAPGKGLEWVACILTGSGSTYYASWVNGRFTISKTSSTTVTLQMTSLTAADTATYFCARYGGDATYNENLWGQGTLVTVSS VL: AQVLTQTPSSVSAAVGGTVTINCQASQSVYNNNRLSWYQQKPGQPPKRLIYGVSTLYYGVSSRFKGSGSGTQFTLTISGMQCDDAAIYYCLGGYDCASADCYAFGGGTEVVVK | 230 | 654 | 633 | 299 | 257 |  | 866 |  | 443 |

Continued, values first:

| Signal Chemiluminescence [1] [chemiluminescence units] | Signal Chemiluminescence [2] [chemiluminescence units] | Signal Chemiluminescence [3] [chemiluminescence units] | chemiluminescence signal (ROC cut-off, TBI) [4] [chemiluminescence units] | chemiluminescence signal (ROC cut-off, stroke) [5] [chemiluminescence units] | binding result [6] | Signal Chemiluminescence [7] [chemiluminescence units] | chemiluminescence signal (normal plasma sample, false positive) [8] [chemiluminescence units] | Signal Chemiluminescence [9] [chemiluminescence units] | Binder |
| --- | --- | --- | --- | --- | --- | --- | --- | --- | --- |
|  |  |  |  |  | binds |  |  |  | 4H1/4K1 rabbit anti-PKCg monoclonal antibody clone (antibody, V domains shown, Rabbit IgG heavy chain and kappa light chain; Entries as printed seem to include a leader; no cleavage site is stated) VH: QSVEESGGRLVTPGTPLTLTCTVSGFSLSLSRNAVSWVRQAPGKGLEWTGIIFGDAKTYYASWAKGRFTISKTATTVDLKITSLTTEDTATYFCVAGTGLWGQGTLVTVSS VL: AQVLTQTASPVSAAVGSTVTINCQASQSVYNKNRLSWYQQKPGQPPKRLIYSSSTLDSGVPLRFSGSGSGTQFTLTISGVQCDDAATYYCLGSYDCSSADCNAFGGGTEVVVK |
| 126 | 1540 | 637 | 710 | 797 |  | 1770 | 630 |  | PKC11 (1H1/1K1) rabbit anti-PKCg monoclonal antibody (antibody, V domains shown, Rabbit IgG heavy chain and rabbit kappa light chain; also called mAb PKC11) VH: QSVEESGGRLVTPGTPLALTCTVSGFSLNYYAMNWVRQAPVKGLEWIGVITSDTTYYASWAKGRFTISKTSTTVELQITSPTTEDTATYFCASGGSTTSPALWGQGTLVTVSS VL: AQVLTQTPSPVSAAVGSTVTINCQASQSVWSKNYLSWFQQKPGQPPKQLIYSASTLASGVPSRFSGSGSGTQFTLTISDVQCDDAATYYCLGSYDCRSADCWTFGGGTEVVVK |
